The experiment addresses T1, GFP-tagged NFR5 (LjNFR5-sfGFP) (Lotus japonicus).
T1 construct: Full-length receptor with C-terminal sfGFP; In the co-IP it was expressed from pLjUbi in N. benthamiana leaves and extracted with detergent; In nodulation assays it was expressed from the native Nfr5 promoter in roots; also called NFR5-GFP
Nature of the experiment: co-immunoprecipitation (RFP-Trap) from N. benthamiana leaf extracts, anti-GFP and anti-mCherry immunoblot (FIG. 1J). As for the experimental part: The assay was performed as in Arora et al. (The Plant Cell 34, 7, 2806 (2022)). In short, N. benthamiana leaves were crushed to a powder in liquid nitrogen using a mortar and pestle, then incubated for 1 hour at 4° C. on a rotor in buffer containing 50 mM Tris-HCl (pH 7.5), 150 mM NaCl, 10% (v/v) glycerol, 2 mM EDTA, 5 mM DTT, 1 mM phenylmethylsulfonyl fluoride, Protease Inhibitor Cocktail (Sigma-Aldrich), and 1% (v/v) IGEPAL® CA-630 (Alfa Aesar) in a ratio of 2 mL/g tissue. Extracts were centrifuged at 4° C. and 4700 rpm for 30 minutes. Supernatants were directly incubated with RFP-Trap® Magnetic Agarose beads (ChromoTek®) overnight at 4° C. The beads were washed five times in buffer containing 50 mM Tris-HCl (pH 7.5), 150 mM NaCl, 10% (v/v) glycerol, 2 mM EDTA, Protease Inhibitor Cocktail (Sigma-Aldrich), and 0.5% (v/v) IGEPAL® CA-630 (Alfa Aesar) on ice. To release the proteins, 50 μL of SDS sample buffer (25 mM Tris-HCl, pH 6.8, 10% glycerol, 2% SDS, 0.2% 2-mercaptoethanol, 0.6 mg/mL Bromophenol blue) was added and samples were heated for 5 minutes at 95° C.
Proteins were separated on 12% SDS-polyacrylamide gels at 120 V for 3 h. Blotting to PVDF membranes (Merck) was done by wet transfer for 2 hours at 90 V. Membranes were blocked with 5% milk for 1 hour. […] Chemiluminescence was detected on a G-BOX (Syngene) using ECL Prime Western Blotting Detection Reagent (Cytiva).

Experimental findings from US20240200085A1 (AARHUS UNIVERSITET, published 2024) are described below.

T1 sequence (chain, as listed by the source limits assumed): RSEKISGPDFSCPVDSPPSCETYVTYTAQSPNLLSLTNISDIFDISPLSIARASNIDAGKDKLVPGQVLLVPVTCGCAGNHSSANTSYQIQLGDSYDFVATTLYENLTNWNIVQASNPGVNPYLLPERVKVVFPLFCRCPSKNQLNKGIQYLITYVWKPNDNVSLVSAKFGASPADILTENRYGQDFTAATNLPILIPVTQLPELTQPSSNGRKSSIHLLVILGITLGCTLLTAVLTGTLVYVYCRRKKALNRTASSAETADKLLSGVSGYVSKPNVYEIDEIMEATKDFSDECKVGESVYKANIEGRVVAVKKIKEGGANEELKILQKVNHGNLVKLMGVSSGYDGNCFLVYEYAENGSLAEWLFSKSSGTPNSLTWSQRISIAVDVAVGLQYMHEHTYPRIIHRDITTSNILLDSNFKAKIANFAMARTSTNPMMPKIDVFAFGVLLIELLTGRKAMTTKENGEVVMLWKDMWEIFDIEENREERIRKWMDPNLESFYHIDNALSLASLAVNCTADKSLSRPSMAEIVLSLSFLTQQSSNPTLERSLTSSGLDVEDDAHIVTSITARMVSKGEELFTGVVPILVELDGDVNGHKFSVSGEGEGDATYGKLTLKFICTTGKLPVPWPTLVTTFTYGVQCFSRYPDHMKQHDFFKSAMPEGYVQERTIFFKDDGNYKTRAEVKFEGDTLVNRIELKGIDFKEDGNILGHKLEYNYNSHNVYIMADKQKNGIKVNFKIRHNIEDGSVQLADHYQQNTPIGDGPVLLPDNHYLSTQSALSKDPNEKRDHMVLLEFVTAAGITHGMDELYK

B1: VHHLaG16m-tagged mCherry (mCherry_20linker_mutNbsfGFP-HA) (VHH)
VHH: QVQLVESGGRLVQAGDSLRLSCAASGRTWSTSAMAWFRQAPGREREFVAAITWWVGNTILGDSVKGRFTISRDRAKNTVDLQMDNLEPEDTAVYYCSARSRWYVLSVLRSVDSYDYWGQGTQVTVSS
notes: Construct EC32015, expressed in N. benthamiana leaves; LaG16 was engineered to carry three bulky tryptophan residues in the paratope; also called mCherry mutNb; mutated LaG16; not shown: mCherry red fluorescent protein (engineered); 20-residue linker ('20linker'); HA tag
B1: the binding result was “no binding”.
